# In paper PMC5419745 (eLife, 2017):
# Read-outs that look alike come from different tables or passages of the source.
# T1: Hsa NCOA3 CID (ACTR) (human, UniProt Q9Y6Q9-3 1040-1081)
# T1 construct: numbers count on: splice variant NCOA3-002 (ENST00000371997); pRSET vector; also called human NCOA3 CID; ACTR CID
# T1 chain (looked up): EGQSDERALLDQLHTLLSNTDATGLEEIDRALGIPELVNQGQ
# T2: Hsa ETS-2 PNT (human, UniProt P15036 85-170)
# T2 construct: pointed (PNT) domain of human ETS-2; also called globular pointed (PNT) domain from human ETS-2; PNT domain of ETS-2; source: expressed and purified as previously described (Dogan et al., 2015)
# T2 sequence (looked up): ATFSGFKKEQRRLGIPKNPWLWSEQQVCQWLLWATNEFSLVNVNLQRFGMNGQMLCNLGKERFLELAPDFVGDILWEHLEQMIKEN
# T3: Hsa ETS-2 PNT (human), P15036
# T3 chain: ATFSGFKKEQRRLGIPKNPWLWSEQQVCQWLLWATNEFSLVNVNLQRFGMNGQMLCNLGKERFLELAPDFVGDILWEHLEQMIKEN
# Experiments:
# Assay in all cases: ITC; iTC200, 25°C, 20 mM sodium phosphate, pH 7.4, 150 mM NaCl; both partners dialysed against the same buffer
# [1] = molecular target: Hsa NCOA1 CID (SRC1) (human)
# [2] = molecular target: Hsa NCOA2 CID (TIF2) (human)
# Hsa ETS-2 PNT (human) = Hsa ETS-2 PNT (human) (UniProt P15036)
# [3] = molecular target: Hsa NCOA3 CID (ACTR) (human) (UniProt Q9Y6Q9)
# Hsa p53TAD (human) = Hsa p53TAD (human) (UniProt P04637)
# Hsa NCOA3 CID (ACTR) = molecular target: T1, Hsa NCOA3 CID (ACTR); settings: both partners purified
# Hsa p53TAD = molecular target: T4, Hsa p53TAD (human, UniProt P04637 1-61); settings: both partners purified
# T4 construct: source: expressed and purified as previously described (Dogan et al., 2015)
# Hsa ETS-2 PNT = molecular target: T2, Hsa ETS-2 PNT; settings: both partners purified
# 1R CID = molecular target: 1R CID
# Fish/Tetrapod NCOA3 CID = molecular target: Fish/Tetrapod NCOA3 CID
# [4] = molecular target: Hsa NCOA1 CID (SRC1) (human); remark: listed apart in the source
# Target sequence in this assay (Q15788 1040-1081): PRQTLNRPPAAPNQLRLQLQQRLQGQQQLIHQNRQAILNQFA
# [5] = molecular target: Hsa NCOA2 CID (TIF2) (human); remark: listed apart in the source
# 1R CID G1080S = molecular target: 1R CID G1080S
# [6] = molecular target: T3, Hsa ETS-2 PNT (human), P15036
# 1R CID S1058N = molecular target: 1R CID S1058N
# 1R CID S1078Q = molecular target: 1R CID S1078Q
# T4 sequence (P04637 1-61): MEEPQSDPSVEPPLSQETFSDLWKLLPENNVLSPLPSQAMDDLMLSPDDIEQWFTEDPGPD
# Chain of Hsa p53TAD (human) (P04637 1-61): as above
molecule,measurement,setting,value
Hsa CREBBP NCBD (from UniProt Q92793 2062-2109) (domain or fragment),Kd,[1],330 nM
same,Kd,[2],130 nM
Hsa CREBBP NCBD A2106Q/Y2108Q (from UniProt Q92793 2062-2109) (domain or fragment),Kd,[2],220 nM
Pma NCBD (domain or fragment),Kd,Hsa ETS-2 PNT (human),1000 nM
same,Kd,[1],190 nM
same,Kd,[2],44 nM
same,Kd,[3],230 nM
Dmel NCBD (domain or fragment),Kd,[1],5200 nM
same,Kd,[2],22000 nM
same,Kd,[3],37000 nM
Hsa CREBBP NCBD Y2108Q (from UniProt Q92793 2062-2109) (domain or fragment),Kd,[2],210 nM
Hsa CREBBP NCBD A2106Q (from UniProt Q92793 2062-2109) (domain or fragment),Kd,[2],100 nM
Hsa p300 NCBD (domain or fragment),Kd,Hsa ETS-2 PNT (human),1500 nM
same,Kd,[1],180 nM
same,Kd,[2],71 nM
same,Kd,[3],110 nM
same,Kd,Hsa p53TAD (human),9200 nM
"GSISPSALQDLLRTLKSPSSPQQQQQVLNILKSNPQLMAAFIKQRTAKYV (domain or fragment, human, Gly-Ser left at the N-terminus from the expression construct; NCBD domain of human CREBBP; pRSET vector; also called human CREBBP NCBD) [Hsa CREBBP NCBD]",Kd,Hsa NCOA3 CID (ACTR),350 nM
same,Kd,Hsa p53TAD,84000 nM
same,Kd,Hsa ETS-2 PNT,760 nM
same,Kd,1R CID,380 nM
"ITPGALQDLLRTLKSPSSPQQQQQVLNILKSNPHLMAAFIKQRTAKYQ (domain or fragment, modifications not checked) [Dre CREBBP NCBD]",Kd,Fish/Tetrapod NCOA3 CID,570 nM
same,Kd,[4],290 nM
same,Kd,[5],230 nM
"IPPSALQDLLRTLRSPSSPQQQQQVLNILKSNPQLMAAFIKQRAARYQ (domain or fragment, modifications not checked) [1R/2R NCBD N2065S K2107R]",Kd,1R CID,170 nM
same,Kd,1R CID G1080S,130 nM
"IPPNALQDLLRTLKSPSSPQQQQQVLNILKSNPQLMAAFIKQRTAKYQ (domain or fragment, modifications not checked) [Fish/Tetrapod CREBBP NCBD]",Kd,Fish/Tetrapod NCOA3 CID,410 nM
same,Kd,[6],1300 nM
"IPPSALQDLLRTLRSPSSPQQQQQVLNILKSNPQLMAAFIKQRAAKYQ (domain or fragment, modifications not checked) [1R/2R NCBD N2065S]",Kd,1R CID,130 nM
"IPPNALQDLLRTLRSPSSPQQQQQVLNILKSNPQLMAAFIKQRAAKYQ (domain or fragment, modifications not checked) [1R/2R NCBD]",Kd,1R CID,200 nM
same,Kd,1R CID G1080S,240 nM
same,Kd,1R CID S1058N,220 nM
same,Kd,1R CID S1078Q,250 nM
same,Kd,[6],850 nM
same,Kd,[4],110 nM
same,Kd,[5],45 nM
